Source: PMC11449360

Target: Recombinant full-length MMTV Gag containing hexa-histidine tag at the C-terminus (Pr77^Gag) (mouse mammary tumor virus (MMTV))
Assay: dynamic light scattering; purified Pr77^Gag-His6 alone in storage buffer (50 mM Tris-HCl pH 8.0, 1 M NaCl); the hydrodynamic radius (about 6.00 nm) from volume and number distributions is read as the oligomer's size

## Recombinant full-length MMTV Gag containing hexa-histidine tag at the C-terminus (Pr77^Gag) (natural protein)
  stoichiometry N: 3
